Assay results from publication PMC12416549 (2024).
Substitutions are numbered along the chain they refer to. Names may count otherwise.

B1: A88S (designed binder)
chain: MTLQELLREEALRRAEAEAFRYALELLAEKFPEQKEYLLDLAEEIESQIRSLSGVDVEDVRKFLDKEWAWVKELLAEHPAELAEVEASRAARLAELRAEVEAKVAA
B2: E81V (designed binder)
chain: B1 chain with E81V, S88A
B3: E95Y (designed binder)
chain: B1 chain with S88A, E95Y
B4: K30F (designed binder)
chain: B1 chain with K30F, S88A
B5: E9S (designed binder)
chain: B1 chain with E9S, S88A
B6: V104M (designed binder)
chain: B1 chain with S88A, V104M
B7: K35C (designed binder)
chain: B1 chain with K35C, S88A
B8: E10W (designed binder)
chain: B1 chain with E10W, S88A
B9: A83Q (designed binder)
chain: B1 chain with A83Q, S88A
B10: S53G (designed binder)
chain: B1 chain with S53G, S88A
B11: E43W (designed binder)
chain: B1 chain with E43W, S88A
B12: L24N (designed binder)
chain: B1 chain with L24N, S88A
B13: L64A (designed binder)
chain: B1 chain with L64A, S88A
B14: L82I (designed binder)
chain: B1 chain with L82I, S88A
B15: D56S (designed binder)
chain: B1 chain with D56S, S88A
B16: P79T (designed binder)
chain: B1 chain with P79T, S88A
B17: L74Y (designed binder)
chain: B1 chain with L74Y, S88A
B18: E44R (designed binder)
chain: B1 chain with E44R, S88A
B19: V71W (designed binder)
chain: B1 chain with V71W, S88A
B20: L38S (designed binder)
chain: B1 chain with L38S, S88A
B21: E73M (designed binder)
chain: B1 chain with E73M, S88A
B22: L74Q (designed binder)
chain: B1 chain with L74Q, S88A
B23: D40S (designed binder)
chain: B1 chain with D40S, S88A
B24: V55I (designed binder)
chain: B1 chain with V55I, S88A
B25: R13S (designed binder)
chain: B1 chain with R13S, S88A
B26: L96S (designed binder)
chain: B1 chain with S88A, L96S
B27: L52Q (designed binder)
chain: B1 chain with L52Q, S88A
B28: E44V (designed binder)
chain: B1 chain with E44V, S88A
B29: L12D (designed binder)
chain: B1 chain with L12D, S88A
B30: R13K (designed binder)
chain: B1 chain with R13K, S88A
B31: L12G (designed binder)
chain: B1 chain with L12G, S88A
B32: L64W (designed binder)
chain: B1 chain with L64W, S88A
B33: K72W (designed binder)
chain: B1 chain with K72W, S88A
B34: L38C (designed binder)
chain: B1 chain with L38C, S88A
B35: E25Y (designed binder)
chain: B1 chain with E25Y, S88A
B36: E18C (designed binder)
chain: B1 chain with E18C, S88A
B37: R21C (designed binder)
chain: B1 chain with R21C, S88A
B38: W68S (designed binder)
chain: B1 chain with W68S, S88A
B39: E9R (designed binder)
chain: B1 chain with E9R, S88A
B40: L74M (designed binder)
chain: B1 chain with L74M, S88A
B41: F20Y (designed binder)
chain: B1 chain with F20Y, S88A
B42: V85Y (designed binder)
chain: B1 chain with V85Y, S88A
B43: E99W (designed binder)
chain: B1 chain with S88A, E99W
B44: E58R (designed binder)
chain: B1 chain with E58R, S88A
B45: P32N (designed binder)
chain: B1 chain with P32N, S88A
B46: V85Q (designed binder)
chain: B1 chain with V85Q, S88A
B47: E46S (designed binder)
chain: B1 chain with E46S, S88A
B48: A98L (designed binder)
chain: B1 chain with S88A, A98L
B49: R92D (designed binder)
chain: B1 chain with S88A, R92D
B50: E5W (designed binder)
chain: B1 chain with E5W, S88A
B51: E84P (designed binder)
chain: B1 chain with E84P, S88A
B52: K62P (designed binder)
chain: B1 chain with K62P, S88A
B53: L39C (designed binder)
chain: B1 chain with L39C, S88A
B54: Q34L (designed binder)
chain: B1 chain with Q34L, S88A
B55: V71T (designed binder)
chain: B1 chain with V71T, S88A
B56: A23R (designed binder)
chain: B1 chain with A23R, S88A
B57: L64T (designed binder)
chain: B1 chain with L64T, S88A
B58: A28E (designed binder)
chain: B1 chain with A28E, S88A
B59: L38Q (designed binder)
chain: B1 chain with L38Q, S88A

Biological target: T1, TNFR1 (Homo sapiens, UniProt P19438)
T1 chain: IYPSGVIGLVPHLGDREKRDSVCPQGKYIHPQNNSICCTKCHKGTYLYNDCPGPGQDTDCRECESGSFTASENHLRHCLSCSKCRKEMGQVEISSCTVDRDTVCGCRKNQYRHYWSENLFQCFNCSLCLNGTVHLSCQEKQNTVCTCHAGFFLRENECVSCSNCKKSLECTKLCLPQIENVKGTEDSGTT
Assay: yeast display SC50

Row | apparent Kd (screen) [nM] | Binder
1 | 0.539 | B1
2 | 0.593 | B2
3 | 0.718 | B3
4 | 0.539 | B4
5 | 0.869 | B5
6 | 0.653 | B6
7 | 0.446 | B7
8 | 2.05 | B8
9 | 0.446 | B9
10 | 2.48 | B10
11 | 0.539 | B11
12 | 0.405 | B12
13 | 13.8 | B13
14 | 0.49 | B14
15 | 1.27 | B15
16 | 0.653 | B16
17 | 0.869 | B17
18 | 1.54 | B18
19 | 2.48 | B19
20 | 11.4 | B20

Row | apparent Kd (screen) [nM] | Binder
21 | 0.653 | B21
22 | 1.54 | B22
23 | 0.539 | B23
24 | 0.539 | B24
25 | 0.277 | B25
26 | 0.539 | B26
27 | 0.539 | B27
28 | 6.43 | B28
29 | 1.05 | B29
30 | 0.869 | B30
31 | 2.25 | B31
32 | 26.9 | B32
33 | 0.79 | B33
34 | 4.39 | B34
35 | 0.653 | B35
36 | 0.79 | B36
37 | 0.718 | B37
38 | 2.48 | B38
39 | 1.4 | B39
40 | 0.956 | B40

Row | apparent Kd (screen) [nM] | Binder
41 | 2.05 | B41
42 | 0.869 | B42
43 | 0.593 | B43
44 | 0.869 | B44
45 | 0.653 | B45
46 | 0.869 | B46
47 | 0.49 | B47
48 | 0.539 | B48
49 | 0.718 | B49
50 | 0.539 | B50
51 | 0.49 | B51
52 | 3 | B52
53 | 1.16 | B53
54 | 0.539 | B54
55 | 1.27 | B55
56 | 0.539 | B56
57 | 12.5 | B57
58 | 5.84 | B58
59 | 16.7 | B59
